{"source": "paper PMC10202384", "target": "recombinant full-length SARS-CoV-2 spike protein with a C-terminal 8x His-tag (SARS-CoV-2) (UniProt P0DTC2)", "test": "BLI; spike with C-terminal 8x His-tag (0.35 μM) immobilised on nickel nitrilotriacetic acid biosensors; αIIbβ3 in solution, zero to 0.51 μM (68 to 512 nM); 20 mM tris pH 7.4, 137 mM NaCl, 1 mM MgCl2, 1 mM MnCl2, 1 mM CaCl2, 50% glycerol plus 1X Octet Kinetics Buffer; 25 °C; global fit"}
{"substance": "platelet-derived purified human αIIbβ3 protein (from UniProt P05106 27-788) (complex)", "values": [{"measurement": "Kd", "result": 47, "unit": "nM"}]}
